Biological target: protein A/G
Test: SPR; real-time, microfluidic cell on the nanostructured gold film, white light and CCD detector, 0.1 Hz; protein A/G (0.5 mg/mL, 1 h, 30 uL/min) immobilised, flushed with PBS; IgG 10 ug/mL injected at 30 uL/min; 10 mM PBS

Substance: IgG (antibody)
- resonance peak shift at 10 ug/mL IgG: 2 nm

Reference: article PMC4829874
